Measured values published in doi:10.1101/2021.04.22.440577 (bioRxiv, 2021).

Tests used:
[1] = molecular target: 4-fold tyrosine-phosphorylated C-Tir (pC-Tir), EPEC Tir residues 388-550 phosphorylated by Fyn (enteropathogenic Escherichia coli (EPEC)) (UniProt B7UM99); assay: NMR titration
[2] = molecular target: the molecule itself; assay: SEC + other: SAXS

4-fold tyrosine-phosphorylated C-Tir (pC-Tir), EPEC Tir residues 388-550 phosphorylated by Fyn (enteropathogenic Escherichia coli (EPEC)), sequence (B7UM99 388-550): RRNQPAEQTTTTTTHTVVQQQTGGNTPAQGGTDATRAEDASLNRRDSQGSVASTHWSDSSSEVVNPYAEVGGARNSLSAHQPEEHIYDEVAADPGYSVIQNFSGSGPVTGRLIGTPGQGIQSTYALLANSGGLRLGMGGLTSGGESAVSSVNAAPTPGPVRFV

Work on “C-terminal SH2 domain (C-SH2) of host tyrosine phosphatase SHP-1 (domain or fragment)” yielded an apparent local KD of the remaining pY sites (pY474, pY483, pY511) [1] of 3 to 9 μM and a fold enhancement of binding at the Y511 ITIM against unphosphorylated C-Tir [1] of 10 fold.

B1: N-terminal cytosolic region of EPEC Tir (N-Tir, residues 1-233) (domain or fragment, enteropathogenic Escherichia coli (EPEC), UniProt B7UM99 1-233, looked up)
chain: MPIGNLGNNVNGNHLIPPAPPLPSQTDGAARGGTGHLISSTGALGSRSLFSPLRNSMADSVDSRDIPGLPTNPSRLAAATSETCLLGGFEVLHDKGPLDILNTQIGPSAFRVEVQADGTHAAIGEKNGLEVSVTLSPQEWSSLQSIDTEGKNRFVFTGGRGGSGHPMVTVASDIAEARTKILAKLDPDNHGGRQPKDVDTRSVGVGSASGIDDGVVSETHTSTTNSSVRSDPK
B1 was tested, and the “stoichiometry N” value [2] was 2.

B2: Structured central part of N-Tir (N-Tir 60-200, NS-Tir) (domain or fragment, enteropathogenic Escherichia coli (EPEC), UniProt B7UM99 60-200, looked up)
chain: SVDSRDIPGLPTNPSRLAAATSETCLLGGFEVLHDKGPLDILNTQIGPSAFRVEVQADGTHAAIGEKNGLEVSVTLSPQEWSSLQSIDTEGKNRFVFTGGRGGSGHPMVTVASDIAEARTKILAKLDPDNHGGRQPKDVDT
With B2 the “stoichiometry N” value [2] was 2.
